Measurements taken from PMC11897156, “Ex.50.T aptamer impairs tumor–stroma cross-talk in breast cancer by targeting gremlin-1”.

Columns and labels:
Gremlin-1 (recombinant) [1] = target: T1, Gremlin-1 (recombinant) (UniProt O60565 25-184); experiment: ELONA; apparent Kd; unit inferred, nM implied by agreement with SPR; GREM1 coated, 200 nM aptamer; Aptamer refolded 85 C 5 min, 4 C 2 min, 37 C 10 min; ELONA: PBS, 3% BSA block, 1 h; pull-down: 10 mM PBS with Ca2+ and Mg2+, room temperature; SPR at 25 C (buffer not in material); cell binding: serum-free medium, 37 C, 30 min; conditions: protein: commercial; chain copies: 2; label: biotin (ELONA, pull-down); none stated for SPR; hairpin; predicted stem of 11 bp, 2 internal loops, 1 terminal loop
T1 sequence: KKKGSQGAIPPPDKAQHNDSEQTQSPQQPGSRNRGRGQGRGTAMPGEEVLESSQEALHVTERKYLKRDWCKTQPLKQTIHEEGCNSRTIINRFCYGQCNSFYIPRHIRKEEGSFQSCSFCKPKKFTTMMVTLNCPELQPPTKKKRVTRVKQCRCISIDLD

Gremlin-1 (recombinant) [2] = target: T1, Gremlin-1 (recombinant); experiment: SPR; GREM1 immobilized, aptamer 0.062-1 uM, 25 C; kon 3.39e4 M-1 s-1, koff 1.58e-3 s-1; Aptamer refolded 85 C 5 min, 4 C 2 min, 37 C 10 min; ELONA: PBS, 3% BSA block, 1 h; pull-down: 10 mM PBS with Ca2+ and Mg2+, room temperature; SPR at 25 C (buffer not in material); cell binding: serum-free medium, 37 C, 30 min; conditions: protein: commercial; chain copies: 2; label: biotin (ELONA, pull-down); none stated for SPR; hairpin; predicted stem of 11 bp, 2 internal loops, 1 terminal loop

B1: ex.50.T (structured_RNA)
RNA: UGUGGCAGUUAAGAAUAGAUCUUCGCUGCGAUU
modifications: lowercase u/c in printed sequence probably 2'-F pyrimidines (not stated in material)
Gremlin-1 (recombinant) [1]
  Kd: 37.7 nM
Gremlin-1 (recombinant) [2]
  Kd: 46.7 nM
